Results published in patent US20220048991A1 (BIOND BIOLOGICS, published 2022).

Columns and labels:
recombinant ILT2 (human) [1] = target: T1, recombinant ILT2 (human) (human, UniProt Q8NHL6 24-461); test: SPR (Biacore T200); KD relative to Control (chimeric 15G8)
T1 construct: also called recombinant ILT2 peptide; ILT2 protein
Protocol: (§1) During grafting of the 15G8 CDRs, five heavy chains and four kappa light chains were generated. These chains were designated VH1-5 and Vk1-4. By combining each heavy chain with each light chain twenty different resultant antibodies are possible. All twenty possible antibodies were transiently expressed in HEK EBNA cells, and the supernatants were tested for binding to recombinant ILT2 peptide using a Biacore T200. The chimeric 15G8 antibody was used as control.

recombinant ILT2 (human) [2] = target: T1, recombinant ILT2 (human); test: SPR (Biacore T200), HEK EBNA supernatants on recombinant ILT2 peptide
Protocol: as §1

T1 sequence (Q8NHL6 24-461 limits assumed): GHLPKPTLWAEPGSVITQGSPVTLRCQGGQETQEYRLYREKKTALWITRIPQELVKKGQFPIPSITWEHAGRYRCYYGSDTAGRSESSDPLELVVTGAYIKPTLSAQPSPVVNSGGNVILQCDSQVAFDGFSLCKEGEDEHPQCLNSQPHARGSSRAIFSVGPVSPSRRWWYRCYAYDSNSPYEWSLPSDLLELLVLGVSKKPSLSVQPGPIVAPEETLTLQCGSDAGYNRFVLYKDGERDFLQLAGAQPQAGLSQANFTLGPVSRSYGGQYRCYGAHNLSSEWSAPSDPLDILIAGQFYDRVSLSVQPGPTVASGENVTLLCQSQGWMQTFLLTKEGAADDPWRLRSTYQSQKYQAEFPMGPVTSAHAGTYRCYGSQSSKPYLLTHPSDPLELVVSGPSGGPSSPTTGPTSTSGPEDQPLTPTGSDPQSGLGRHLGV

Binder | Relative KD (recombinant ILT2 (human) [1]) | Kd (recombinant ILT2 (human) [2]) | koff (recombinant ILT2 (human) [2]) | kon (recombinant ILT2 (human) [2])
15G8-23 (humanized 15G8, VH2/Vk3) (antibody, human IgG4 S228P, kappa, V domains shown, Humanized IgG4 (S228P, L235E), kappa) VH: DVQLQGSGPGLVKPSETLSLTCSVTGYSITSGYYWNWIRQFPGKKLEWMGYISYDGSNNYNPSLKNRITISRDTSKNQFSLKLSSVTAADTATYYCAHGYSYYYAMDAWGQGTTVTVSS VL: DIQMTQSPSSLSASVGDRVTITCRTSQDISNYLNWYQQKPGKAVKLLISYTSRLHSGVPSRFSGSGSGTDYTLTISSLQPEDFATYYCQQGNTLPTFGQGTKLEIKR | 0.66 | 8.31 nM | 0.0076 s⁻¹ | 915000 M⁻¹ s⁻¹
humanized 15G8 VH4/Vk2 (antibody, IgG4, V domains shown, Humanized IgG4 (S228P, L235E), kappa; tested as supernatant of transiently transfected HEK EBNA cells) VH: QVQLQGSGPGLVKPSETLSLTCSVTGYSITSGYYWNWIRQPPGKGLEWMGYISYDGSNNYNPSLKNRVTISRDTSKNQFSLKLSSVTAADTATYYCAHGYSYYYAMDAWGQGTTVTVSS VL: DIQMTQSPSSLSASVGDRVTITCRTSQDISNYLNWYQQKPGKAVKLLISYTSRLHSGVPSRFSGSGSGTDYTLTISSLQPEDFATYFCQQGNTLPTFGQGTKLEIK | 0.79 | 9.93 nM | 0.00685 s⁻¹ | 690000 M⁻¹ s⁻¹
15G8-34 (humanized 15G8, VH3/Vk4) (antibody, IgG4, V domains shown, Humanized IgG4 (S228P, L235E), kappa) VH: DVQLQGSGPGLVKPSETLSLTCSVTGYSITSGYYWNWIRQPPGKGLEWMGYISYDGSNNYNPSLKNRITISRDTSKNQFSLKLSSVTAADTATYYCAHGYSYYYAMDAWGQGTTVTVSS VL: DIQMTQSPSSLSASVGDRVTITCRTSQDISNYLNWYQQKPGKAPKLLISYTSRLHSGVPSRFSGSGSGTDYTLTISSLQPEDFATYFCQQGNTLPTFGQGTKLEIK | 1 | 12.6 nM | 0.00832 s⁻¹ | 661000 M⁻¹ s⁻¹
15G8-44 (humanized 15G8, VH4/Vk4) (antibody, IgG4, V domains shown, Humanized IgG4 (S228P, L235E), kappa) VH: QVQLQGSGPGLVKPSETLSLTCSVTGYSITSGYYWNWIRQPPGKGLEWMGYISYDGSNNYNPSLKNRVTISRDTSKNQFSLKLSSVTAADTATYYCAHGYSYYYAMDAWGQGTTVTVSS VL: DIQMTQSPSSLSASVGDRVTITCRTSQDISNYLNWYQQKPGKAPKLLISYTSRLHSGVPSRFSGSGSGTDYTLTISSLQPEDFATYFCQQGNTLPTFGQGTKLEIK | 1.07 | 13.5 nM | 0.00977 s⁻¹ | 724000 M⁻¹ s⁻¹

Next, values leading:

Relative KD (recombinant ILT2 (human) [1]) | Kd (recombinant ILT2 (human) [2]) | koff (recombinant ILT2 (human) [2]) | kon (recombinant ILT2 (human) [2]) | Binder
0.65 | 8.19 nM | 0.00664 s⁻¹ | 811000 M⁻¹ s⁻¹ | 15G8-32 (humanized 15G8, VH3/Vk2) (antibody, human IgG4 S228P, kappa, V domains shown, Humanized IgG4 (S228P, L235E), kappa) VH: DVQLQGSGPGLVKPSETLSLTCSVTGYSITSGYYWNWIRQPPGKGLEWMGYISYDGSNNYNPSLKNRITISRDTSKNQFSLKLSSVTAADTATYYCAHGYSYYYAMDAWGQGTTVTVSS VL: DIQMTQSPSSLSASVGDRVTITCRTSQDISNYLNWYQQKPGKAVKLLISYTSRLHSGVPSRFSGSGSGTDYTLTISSLQPEDFATYFCQQGNTLPTFGQGTKLEIKR
0.84 | 10.6 nM | 0.0072 s⁻¹ | 682000 M⁻¹ s⁻¹ | 15G8-53 (humanized 15G8, VH5/Vk3) (antibody, human IgG4 S228P, kappa, V domains shown, Humanized IgG4 (S228P, L235E), kappa) VH: QVQLQGSGPGLVKPSETLSLTCTVTGYSITSGYYWNWIRQPPGKGLEWIGYISYDGSNNYNPSLKNRVTISRDTSKNQFSLKLSSVTAADTATYYCAHGYSYYYAMDAWGQGTTVTVSS VL: DIQMTQSPSSLSASVGDRVTITCRTSQDISNYLNWYQQKPGKAVKLLISYTSRLHSGVPSRFSGSGSGTDYTLTISSLQPEDFATYYCQQGNTLPTFGQGTKLEIKR
0.82 | 10.3 nM | 0.0117 s⁻¹ | 1.14e+06 M⁻¹ s⁻¹ | 15G8-54 (humanized 15G8, VH5/Vk4) (antibody, IgG4, V domains shown, Humanized IgG4 (S228P, L235E), kappa) VH: QVQLQGSGPGLVKPSETLSLTCTVTGYSITSGYYWNWIRQPPGKGLEWIGYISYDGSNNYNPSLKNRVTISRDTSKNQFSLKLSSVTAADTATYYCAHGYSYYYAMDAWGQGTTVTVSS VL: DIQMTQSPSSLSASVGDRVTITCRTSQDISNYLNWYQQKPGKAPKLLISYTSRLHSGVPSRFSGSGSGTDYTLTISSLQPEDFATYFCQQGNTLPTFGQGTKLEIK
